The values that follow come from publication PMC7015241.

Where two headings read alike, the source gives them in different places.

The Kd is the constant that tells how readily two partners part at equilibrium.

In assay [1] the target is Filamentous actin (F-actin) (rabbit) (UniProt P68135). Nature of the assay: co-sedimentation; 1–30 μM polymerized actin incubated with 10 μM MYPN Ig3, Ig4 or Ig3–4 domain for 1 h in 100 μL, 150 000×g for 30 min; SDS-PAGE of supernatants and pellets, densitometry; F-buffer (Tris, KCl, MgCl2, DTT, pH 8.0).
For assay [2], the target named is F-actin (Oryctolagus cuniculus) (UniProt P68135). The settings on record: cited from earlier work.
Assay [3] has the same target. The following applies: cited from earlier work. This is another data set of the same source.

As for “Myopalladin (MYPN) Ig3 domain (domain or fragment)”, the Kd in assay [1] was determined as 7.6 µM.

As for PALLD Ig3 (from UniProt Q9ET54), in assay [2], the Kd was 70 µM.

Turning to PALLD Ig3-4 (from UniProt Q9ET54), the Kd in assay [3] was 9 µM.
